Measured values taken from article PMC9935832, “Calcium-dependent protein kinase CDPK16 phosphorylates serine-856 of glutamate receptor-like GLR3.6 protein leading to salt-responsive root growth in Arabidopsis^#” (Frontiers in Plant Science, 2023).

T1: 6xHis-14-3-3ω (Arabidopsis, UniProt Q01525 1-259)
T1 construct: End of the His tag read from the printed name 6xHis-14-3-3ω; Vector map in Appendix 1B; construct as in Chen et al. (2018); also called recombinant 6xHis-14-3-3ω; source: E. coli BL21, purified (Ni-NTA agarose); not shown: 6xHis, N-terminal, kept
T1 sequence (looked up): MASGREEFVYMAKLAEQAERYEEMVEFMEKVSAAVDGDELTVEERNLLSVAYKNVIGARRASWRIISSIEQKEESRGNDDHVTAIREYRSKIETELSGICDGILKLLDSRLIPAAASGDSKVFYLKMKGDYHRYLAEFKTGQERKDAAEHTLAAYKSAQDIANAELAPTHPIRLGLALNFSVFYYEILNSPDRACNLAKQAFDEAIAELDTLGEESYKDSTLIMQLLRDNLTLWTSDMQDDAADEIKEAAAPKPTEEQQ


Molecular target: T1, 6xHis-14-3-3ω
Experiment: pull-down; 6xHis-14-3-3ω and GST-fused GLR3.6 peptides (50 μg each) mixed with Ni-NTA agarose, 4°C, 2 h; western blot with α-His and α-GST
Details: both partners purified

| binding result | Binder |
| --- | --- |
| binds | EGSIRRRSSPSA (cloned by AscI and NotI into the GST-NRV vector; End of GST read from the printed name GST-GLR3.6; The vector-only control gives GST-RFP-Strep tag II, so the peptide fusion probably carries RFP and Strep tag II too; vector map in Appendix 1A; design as in Curran et al. (2011); also called GLR3.6 peptide fragment; source: E. coli BL21, purified (glutathione resin); not shown: GST, N-terminal, kept) [GST-GLR3.6 (GST-fused peptide fragment of GLR3.6, amino acids 854-865)] |
| binds | EGAIRRRSSPSA (peptide, UniProt Q84W41 854-865, looked up, End of GST read from the printed name; also called GLR3.6-S856A single mutant; source: E. coli BL21, purified (glutathione resin); not shown: GST, N-terminal, kept) [GST-GLR3.6-S856A (GST-fused peptide fragment)] |
